# Data from article PMC4369838.
# Biological target: Synthetic Aβ(1–42), prepared as amyloid-beta-derived diffusible ligands (ADDLs) (human)
# Experiment: SEC; analytical SEC of the ADDL preparation (Superdex 75 5/150, PBS, pH 7.4); oligomer peak area divided by oligomer plus monomer peak area; three separate experiments
substance,measurement,value
"Synthetic Aβ(1–42), prepared as amyloid-beta-derived diffusible ligands (ADDLs) (peptide)",percent of total Aβ in species larger than monomers,47%
